According to publication PMC10138348 (2023):

Columns and labels:
[1] = biological target: T1, F4, TNFα-derived peptide with a myristoylated lysine and fluorescein-labelled cysteine in the +2 position (UniProt P01375, myristoyl residue on the lysine side chain; 5-acetamidofluorescein coupled to a cysteine residue at position +2); assay: FP; 0 uM BSA, no NAD+
[2] = biological target: T1, F4, TNFα-derived peptide with a …; assay: FP; 3 uM BSA, no NAD+
[3] = biological target: T1, F4, TNFα-derived peptide with a …; assay: FP; 0.3 uM BSA, no NAD+

Kd [1]: 12.3 nM | Kd [2]: 7 nM | Kd [3]: 9.4 nM
B1: SIRT2 (enzyme)
chain: MAEPDPSHPLETQAGKVQEAQDSDSDSEGGAAGGEADMDFLRNLFSQTLSLGSQKERLLDELTLEGVARYMQSERCRRVICLVGAGISTSAGIPDFRSPSTGLYDNLEKYHLPYPEAIFEISYFKKHPEPFFALAKELYPGQFKPTICHYFMRLLKDKGLLLRCYTQNIDTLERIAGLEQEDLVEAHGTFYTSHCVSASCRHEYPLSWMKEKIFSEVTPKCEDCQSLVKPDIVFFGESLPARFFSCMQSDFLKVDLLLVMGTSLQVQPFASLISKAPLSTPRLLINKEKAGQSDPFLGMIMGLGGGMDFDSKKAYRDVAWLGECDQGCLALAELLGWKKELEDLVRREHASIDAQSGAGVPNPSTSASPKKSPPPAKDEARTTEREKPQ
